The supplement of paper PMC10567573

B1: FANCE (parent)
chain: AQVLMLGQILELPWKEETFLVLQS
B2: VTI1B (parent)
chain: ANETLAEMEEELRYAPLSFRNPMM

Variants of: B1
Assay: protein stability index of a GFP-peptide fusion (GPS, HEK-293T) (PSI 1-6); higher = more stable
Conditions: c terminus: a fixed tail appended
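Also: lentivirally expressed fusions sorted by FACS into six bins by GFP to DsRed ratio, PSI derived from sequencing read proportions per bin multiplied by bin number.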

Variant | protein stability index
S24T | 2.51
S24W | 3.86
S24Y | 2.4

Variants of: B2
Assay: as above
Conditions: c terminus: a fixed tail appended

Variant | protein stability index
A1C | 2.39
A1D | 2.69
A1E | 2.72
A1F | 1.81
A1G | 3.02
A1H | 2.16
A1I | 1.91
A1K | 2.04
A1L | 2.14
A1M | 2.65
A1N | 2.27
A1P | 2.37
A1Q | 1.92
A1R | 1.46
A1S | 2.49
A1T | 2.36
A1V | 1.34
A1W | 2.82
A1Y | 2.54
N2A | 2.91
N2C | 2.13
N2G | 2.01
N2H | 2.9
N2I | 2.53

Variant | protein stability index
N2L | 2.58
N2P | 2.52
N2Q | 2.27
N2R | 1.26
N2S | 1.94
N2T | 2.19
N2W | 1.06
N2Y | 2.05
E3A | 2.18
E3C | 2.01
E3D | 2.97
E3F | 1.96
E3G | 2.51
E3H | 2.43
E3I | 2.1
E3K | 2.85
E3L | 1.38
E3M | 2.1
E3N | 2.43
E3P | 2.26
E3Q | 2.53
E3S | 2.27
E3T | 2.01
E3V | 2.13

Variant | protein stability index
E3W | 2.29
E3Y | 1.94
T4A | 2.15
T4C | 1.69
T4D | 2.33
T4E | 3.26
T4F | 2.12
T4G | 2.39
T4H | 1.83
T4I | 2.4
T4K | 2.72
T4L | 2.47
T4M | 2.07
T4N | 2.79
T4P | 2.41
T4Q | 2.54
T4R | 1.99
T4S | 2.58
T4V | 1.9
T4W | 1.99
T4Y | 1.23
L5A | 2.7
L5C | 2.69
L5D | 3.62

Variant | protein stability index
L5E | 3.32
L5F | 2.96
L5G | 2.58
L5H | 3.14
L5I | 2.16
L5K | 2.16
L5N | 3.05
L5P | 2.73
L5Q | 2.86
L5R | 2.14
L5S | 2.96
L5T | 3.01
L5V | 2.78
L5W | 2.01
L5Y | 2.4
A6C | 2.12
A6D | 3.76
A6E | 2.77
A6F | 3.33
A6G | 2.17
A6H | 2.4
A6I | 1.85
A6K | 2.78
A6L | 1.88

Variant | protein stability index
A6M | 2.86
A6N | 2.75
A6P | 2.51
A6Q | 2.79
A6R | 2.67
A6S | 2.73
A6T | 1.79
A6V | 2.16
A6W | 2.05
A6Y | 2.18
E7A | 2.85
E7C | 2.01
E7D | 2.69
E7F | 2.1
E7G | 1.9
E7H | 2.2
E7K | 2.52
E7L | 2.5
E7M | 2.21
E7N | 2.61
E7Q | 2.31
E7R | 1.17
E7S | 2.84
E7T | 2.53

Variant | protein stability index
E7W | 1.57
E7Y | 2.31
M8A | 3.28
M8C | 2.94
M8D | 3.37
M8E | 3.1
M8F | 2.51
M8G | 3.19
M8H | 3.39
M8I | 2.8
M8K | 2.4
M8L | 2.3
M8N | 2.72
M8P | 3.11
M8Q | 2.62
M8R | 2.46
M8S | 3.14
M8T | 3.11
M8V | 2.16
M8W | 1.51
M8Y | 2.73
E9A | 2.44
E9C | 2.33
E9D | 2.85

Variant | protein stability index
E9F | 2.71
E9G | 2.19
E9H | 3.27
E9I | 3.61
E9K | 1.8
E9L | 2.45
E9M | 2.19
E9N | 2.87
E9P | 3.22
E9R | 1.4
E9S | 2.78
E9T | 2.94
E9V | 1.66
E9W | 1.3
E9Y | 2.48
E10A | 2.04
E10C | 2.16
E10D | 1.62
E10F | 2.75
E10G | 1.49
